Reference: patent US6380375B1, “DNA encoding monkey gonadotropin releasing hormone receptor” (Merck & Co., Inc., priority 1999, dated 2002)

Tests used:
[1] = target: monkey gonadotropin-releasing hormone (GnRH) receptor (monkey); assay: whole cell radioligand binding, eight of the 96 neoR CHO-K1 clones screened
[2] = target: monkey gonadotropin-releasing hormone (GnRH) receptor (monkey); assay: whole cell radioligand binding, best CHO-K1 clone expressing the monkey GnRH receptor
[3] = tested on: monkey GnRH receptor; assay: Aequorin bioluminescence assay in CHO-K1 cells stably co-expressing the monkey GnRH receptor and apo-aequorin; assay type: cell-based; details: CHO-K1 cells co-expressing monkey GnRHR and apo-aequorin; P1/(P1+P2) response
Description: To construct this dual stable cell line, the 600 bp aeq gene was cut out by EcoRI and KpnI from pcDNA3.aeq, and inserted into pIRES1hyg (Clontech Laboratories, Palo Alto, Calif.) at BamHI that was blunt-ended. The positive clones were identified by colony-hybridization using the probe of aeq. The new construct that contained aeq and hyg was transfected into monkey GnRHR-CHO-K1 cells (as Example 5). The transfectants were selected by 600 μg/ml hygromycin (Boehringer Mannheim, Indianapolis, Ind.) for 10 days, and 480 hyg^r colonies were transferred into 96-well plates. These clones were assayed for aequorin by the aequorin bioluminescence assay as described in Example 7, and many positive clones were identified. […] This clone was single cell isolated, and used for the functional evaluation of the monkey GnRH receptor by the aequorin assay.
The aequorin assay has been widely used to monitor the changes in the cytosolic Ca^2+ concentration caused by the activation of the G-protein coupled receptors. […] The plate was read immediately in a Bioluminomitor (Lumino Skan RS) for 30 seconds. […] The remaining unreacted aequorin was determined by lysing the cells with 0.1% Triton X-100 (Sigma, St. Louis, Mo.). […] The percentage of aequorin which responded to GnRH challenge was calculated as P1/(P1+P2). […]

[4] = target: monkey gonadotropin-releasing hormone (GnRH) receptor (monkey); assay: cell-based or functional assay
[5] = tested on: monkey GnRH receptor; assay: Phosphoinositide (PI) turnover assay in CHO-K1 cells stably expressing the monkey GnRH receptor; assay type: cell-based; details: monkey GnRHR-CHO-K1 cells, 37° C., 1 hour, FIG. 7; read-out: EC50 of GnRH-stimulated PI turnover
Description: The ORF of the monkey GnRH receptor was subcloned into a polycistronic expression vector pIRES1.neo (Clontech Laboratories, Palo Alto, Calif.) to generate cells that stably express these receptors. In this vector, the cloned receptor cDNA and the neo gene were transcribed into one mRNA. The plasmid DNA of pIRES1.neo-mkGnRHR was transfected into CHO-K1 cells using the method of lipofectin. Transfection was carried out for overnight and the cells were split 48 hours later. G418 at 1 mg/ml was added 24 hours after splitting, and its concentration was increased to 2 mg/ml in 2-3 days. After 10 days selection by G418, colonies were picked and transferred to 24-well plates. The monkey GnRH receptor expression clones were screened by the whole cell binding assay using a radiolabeled peptide agonist of GnRH, 5-(^125Iodo-Tyr)-Buserelin (Woods Assay, Portland, Oreg.). […] After single cell isolation, the membrane from this clone was prepared, and the membrane binding assay was performed using ^125I-buserelin. […] The GnRH-stimulated PI turnover was also performed.
CHO-K1 cells stably expressing the monkey GnRH receptor are functionally coupled to phospholipase C. […] The eluate was then counted in a scintillation counter.

Row | specific binding, fold above the non-specific binding [1] | fold above the background [2] | specific binding activity [2] | EC50 [3] | GnRH-stimulated PI turnover, EC50 [4] | aequorin bioluminescence assay, AUC for P1 [4] | aequorin bioluminescence assay, EC50 of GnRH [4] | aequorin bioluminescence assay, P1/(P1+P2) ratio [4] | EC50 [5] | Molecule
1 | 3 fold | 5 fold | 645 cpm |  |  |  |  |  |  | 5-(125Iodo-Tyr)-Buserelin (peptide)
2 |  |  |  | 2 nM | 0.43 nM | 1290 | 2 nM | 71% | 0.43 nM | Gonadotropin-releasing hormone (neuronal decapeptide hormone released from hypothalamus; obtained from a vendor and used as agonist) peptide: QHWSYGLRPGGKRDAENLIDSFQEIVKEVGQLAETQRFECTTHQPRSPLRDLKGALESLIEEETGQKKI
